Laboratory results taken from US20120077731A1 (Ablynx, published 2012).

What was measured:
Human plasma sIL-6R [1] = molecular target: T1, Human plasma sIL-6R (human, UniProt P08887 20-355, limits assumed); assay: plasma potency ELISA, human plasma; human plasma
T1 construct: also called plasma-derived human IL-6R
T1 sequence (looked up): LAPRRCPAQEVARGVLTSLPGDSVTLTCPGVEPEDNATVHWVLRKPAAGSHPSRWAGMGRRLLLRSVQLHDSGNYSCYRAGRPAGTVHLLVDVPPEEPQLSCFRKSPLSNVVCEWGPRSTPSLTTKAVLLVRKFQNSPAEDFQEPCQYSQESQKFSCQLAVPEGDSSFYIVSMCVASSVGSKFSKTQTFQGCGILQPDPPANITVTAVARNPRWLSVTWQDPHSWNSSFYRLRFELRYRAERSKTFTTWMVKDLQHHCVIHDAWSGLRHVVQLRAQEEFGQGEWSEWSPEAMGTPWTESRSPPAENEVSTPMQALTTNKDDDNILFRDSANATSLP

Cyno plasma sIL-6R [2] = molecular target: T2, Cyno plasma sIL-6R (cynomolgus monkey, UniProt A0A2K5WN54 60-396); assay: plasma potency ELISA, cyno plasma + human IL-6 50 ng/mL; sIL-6R captured on BN-12, bound IL-6 detected; blocked ligand IL-6
T2 construct: also called cynomolgus sIL-6R
T2 sequence: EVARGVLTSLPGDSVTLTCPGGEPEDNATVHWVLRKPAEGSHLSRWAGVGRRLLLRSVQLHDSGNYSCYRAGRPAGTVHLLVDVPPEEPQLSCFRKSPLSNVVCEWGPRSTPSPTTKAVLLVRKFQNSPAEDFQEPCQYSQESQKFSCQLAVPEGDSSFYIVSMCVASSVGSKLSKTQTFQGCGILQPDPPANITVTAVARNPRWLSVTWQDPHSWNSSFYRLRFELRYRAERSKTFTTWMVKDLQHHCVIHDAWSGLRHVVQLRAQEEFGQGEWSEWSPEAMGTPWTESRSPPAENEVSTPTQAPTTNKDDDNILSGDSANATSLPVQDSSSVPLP

Human plasma sIL-6R [3] = molecular target: T1, Human plasma sIL-6R; assay: plasma potency assay, human plasma, 42 nM IL6; blocked ligand IL-6
Description: (§1) All 5 affinity matured Nanobodies and the sequence optimized Nanobody were also tested in a plasma potency assay. […] TMB was used as substrate.

Cyno plasma sIL-6R [4] = molecular target: T2, Cyno plasma sIL-6R; assay: plasma potency ELISA, human against cyno plasma
Human plasma sIL-6R [5] = molecular target: T1, Human plasma sIL-6R; assay: plasma potency assay, human plasma, 2.4 nM IL6; blocked ligand IL-6
Description: as §1

Human plasma sIL-6R [6] = molecular target: T1, Human plasma sIL-6R; assay: plasma potency ELISA, human plasma, normal IL-6 (EC50)
Human plasma sIL-6R [7] = molecular target: T1, Human plasma sIL-6R; assay: plasma potency ELISA, human plasma
Cyno plasma sIL-6R [8] = molecular target: T2, Cyno plasma sIL-6R; assay: plasma potency ELISA, cyno plasma
[9] = molecular target: T3, Human membrane IL-6R on cells (human, UniProt P08887 20-468); assay: cell-based or functional assay
T3 sequence (looked up): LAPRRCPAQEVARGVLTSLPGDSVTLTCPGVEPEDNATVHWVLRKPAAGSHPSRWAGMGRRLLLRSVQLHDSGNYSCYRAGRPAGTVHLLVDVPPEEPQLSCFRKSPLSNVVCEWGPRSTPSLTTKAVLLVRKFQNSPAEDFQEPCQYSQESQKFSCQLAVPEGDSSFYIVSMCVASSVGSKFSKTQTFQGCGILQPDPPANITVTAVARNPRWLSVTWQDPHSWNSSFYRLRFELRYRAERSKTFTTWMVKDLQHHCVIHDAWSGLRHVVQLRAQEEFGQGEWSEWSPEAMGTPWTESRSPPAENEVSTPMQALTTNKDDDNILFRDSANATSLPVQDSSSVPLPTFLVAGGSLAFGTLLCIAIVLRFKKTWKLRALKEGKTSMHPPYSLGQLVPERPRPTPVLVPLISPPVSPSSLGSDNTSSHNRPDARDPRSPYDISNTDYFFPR

Human plasma sIL-6R [10] = molecular target: T1, Human plasma sIL-6R; assay: plasma potency ELISA, human plasma + human IL-6 50 ng/mL; sIL-6R captured on BN-12, bound IL-6 detected; blocked ligand IL-6
Human plasma sIL-6R [11] = molecular target: T1, Human plasma sIL-6R; assay: plasma potency ELISA, human plasma, high IL-6 (EC95)
[12] = molecular target: T3, Human membrane IL-6R on cells; assay: cell-based or functional assay; remark: listed apart in the source
[13] = molecular target: T3, Human membrane IL-6R on cells; assay: cell-based or functional assay; remark: listed apart in the source

B1: Reference IgG (antibody, V domains shown)
VH: QVQLQESGPGLVRPSQTLSLTCTVSGYSITSDHAWSWVRQPPGRGLEWIGYISYSGITTYNPSLKSRVTMLRDTSKNQFSLRLSSVTAADTAVYYCARSLARTTAMDYWGQGSLVTVSS
VL: DIQMTQSPSSLSASVGDRVTITCRASQDISSYLNWYQQKPGKAPKLLIYYTSRLHSGVPSRFSGSGSGTDFTFTISSLQPEDIATYYCQQGNTLPYTFGQGTKVEIKR
notes: Full-length human IgG1 produced in CHO cells
B1 was tested, and the IC50 (Human plasma sIL-6R [1]) was 0.258 nM, the “IC50 (read off the curve)” value (Cyno plasma sIL-6R [2]) was ~0.01 nM and the IC50 (Human plasma sIL-6R [3]) was 1.7 nM. For the same binder, the “Ratio (human/cyno) of IC50” value (Cyno plasma sIL-6R [4]) was 1.55, the IC50 (Human plasma sIL-6R [5]) was 0.2 nM and the IC50 (Human plasma sIL-6R [6]) was 0.258 nM. The “Ratio (high/low) of IC50” value (Human plasma sIL-6R [7]) was 6.54, the IC50 (Cyno plasma sIL-6R [8]) was 0.166 nM and the “IC50 (nM), TF-1 proliferation at 5000 IU/mL IL-6” value [9] was 144 nM. The “IC50 (read off the curve)” value (Human plasma sIL-6R [10]) was ~0.04 nM, the IC50 (Human plasma sIL-6R [11]) was 1.69 nM and the “IC50 (nM), TF-1 proliferation at 100 IU/mL IL-6” value [12] was 0.921 nM. For the same binder, the “IC50 (nM) + HSA, XG-1 proliferation assay” value [13] was 0.47 nM.
